Laboratory results as given in paper PMC4434323.

Columns and labels:
[1] = target: T1, nhr-122 (Y41D4B.9) (Caenorhabditis elegans) (UniProt Q95Y09)
T1 sequence: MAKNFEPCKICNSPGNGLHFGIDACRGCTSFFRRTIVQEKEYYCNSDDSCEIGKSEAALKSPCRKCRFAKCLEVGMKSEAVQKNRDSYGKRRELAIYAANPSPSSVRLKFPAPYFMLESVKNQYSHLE

[2] = target: T2, jun-1 (T24H10.7) (Caenorhabditis elegans) (UniProt G5ECU7)
T2 sequence: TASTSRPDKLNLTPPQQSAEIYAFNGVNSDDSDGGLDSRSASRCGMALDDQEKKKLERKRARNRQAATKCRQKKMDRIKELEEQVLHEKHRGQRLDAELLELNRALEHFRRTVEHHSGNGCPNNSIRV

[3] = test system: T3, C34D1.1 (C34D1.1) (Caenorhabditis elegans)
T3 sequence: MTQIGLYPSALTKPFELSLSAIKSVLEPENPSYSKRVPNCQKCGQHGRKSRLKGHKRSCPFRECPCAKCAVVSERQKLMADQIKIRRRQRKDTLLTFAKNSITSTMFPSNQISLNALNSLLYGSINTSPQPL

[4] = test system: T4, dmd-3 (Y43F8C.10) (Caenorhabditis elegans)
T4 sequence: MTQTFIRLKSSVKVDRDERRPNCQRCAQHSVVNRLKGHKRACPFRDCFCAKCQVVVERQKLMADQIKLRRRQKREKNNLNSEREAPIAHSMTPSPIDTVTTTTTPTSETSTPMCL

[5] = target: T5, mab-3 (Y53C12B.5) (Caenorhabditis elegans) (UniProt O18214)
T5 sequence: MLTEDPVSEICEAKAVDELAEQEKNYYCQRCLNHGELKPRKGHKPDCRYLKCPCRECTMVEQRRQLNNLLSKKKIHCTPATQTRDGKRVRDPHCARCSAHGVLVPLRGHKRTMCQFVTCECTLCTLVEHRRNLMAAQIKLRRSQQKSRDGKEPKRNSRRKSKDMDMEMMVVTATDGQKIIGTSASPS

[6] = target: T6, Y67D8A.3 (Y67D8A.3) (Caenorhabditis elegans) (UniProt Q95XU1)
T6 sequence: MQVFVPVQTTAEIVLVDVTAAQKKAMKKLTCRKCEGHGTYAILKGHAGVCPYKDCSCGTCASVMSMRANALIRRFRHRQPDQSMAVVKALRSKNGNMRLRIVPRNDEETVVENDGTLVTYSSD

[7] = target: T7, T27F2.4 (T27F2.4) (Caenorhabditis elegans) (UniProt Q22835)
T7 sequence: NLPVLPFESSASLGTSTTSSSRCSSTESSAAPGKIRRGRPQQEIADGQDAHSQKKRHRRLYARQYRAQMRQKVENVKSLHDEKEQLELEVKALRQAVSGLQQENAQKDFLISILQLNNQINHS

[8] = target: T8, lin-31 (K10G6.1) (Caenorhabditis elegans) (UniProt P34683)
T8 sequence: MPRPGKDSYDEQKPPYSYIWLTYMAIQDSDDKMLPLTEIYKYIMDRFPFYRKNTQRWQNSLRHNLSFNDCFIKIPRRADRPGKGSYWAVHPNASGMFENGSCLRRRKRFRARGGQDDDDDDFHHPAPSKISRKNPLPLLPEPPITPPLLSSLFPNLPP

[9] = target: T9, fkh-9 (K03C7.2) (Caenorhabditis elegans) (UniProt Q21187)
T9 sequence: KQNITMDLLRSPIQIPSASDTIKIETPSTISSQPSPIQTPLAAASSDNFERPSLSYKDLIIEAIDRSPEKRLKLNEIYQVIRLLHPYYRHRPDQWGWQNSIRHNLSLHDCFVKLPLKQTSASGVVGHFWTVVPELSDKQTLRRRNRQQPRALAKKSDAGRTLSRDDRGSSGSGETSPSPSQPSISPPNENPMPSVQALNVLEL

[10] = target: T10, let-381 (F26B1.7) (Caenorhabditis elegans) (UniProt P91278)
T10 sequence: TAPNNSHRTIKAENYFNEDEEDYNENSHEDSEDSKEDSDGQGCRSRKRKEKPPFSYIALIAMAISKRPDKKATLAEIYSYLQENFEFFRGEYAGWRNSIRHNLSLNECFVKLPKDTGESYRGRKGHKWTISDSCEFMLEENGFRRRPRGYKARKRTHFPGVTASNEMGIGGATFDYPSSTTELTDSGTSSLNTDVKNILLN

[11] = target: T11, nhr-154 (C13C4.2) (Caenorhabditis elegans) (UniProt O01931)
T11 sequence: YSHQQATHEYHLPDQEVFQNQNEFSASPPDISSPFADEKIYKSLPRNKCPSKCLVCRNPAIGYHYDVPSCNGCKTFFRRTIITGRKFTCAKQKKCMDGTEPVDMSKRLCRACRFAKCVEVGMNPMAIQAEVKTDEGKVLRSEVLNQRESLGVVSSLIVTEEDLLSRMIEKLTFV

[12] = target: T12, hlh-16 (DY3.3) (Caenorhabditis elegans) (UniProt O45320)
T12 sequence: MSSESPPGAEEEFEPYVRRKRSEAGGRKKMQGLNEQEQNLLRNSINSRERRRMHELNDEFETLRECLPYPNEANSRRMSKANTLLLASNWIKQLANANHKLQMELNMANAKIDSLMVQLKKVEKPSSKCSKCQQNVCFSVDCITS

[13] = target: T13, unc-120 (D1081.2) (Caenorhabditis elegans) (UniProt Q18955)
T13 sequence: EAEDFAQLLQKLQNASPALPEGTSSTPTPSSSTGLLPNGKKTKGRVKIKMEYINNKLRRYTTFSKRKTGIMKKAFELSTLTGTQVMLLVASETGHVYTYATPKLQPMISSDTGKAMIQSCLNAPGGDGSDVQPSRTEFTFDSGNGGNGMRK

[14] = target: T14, nhr-3 (H01A20.1) (Caenorhabditis elegans) (UniProt Q9XTJ4)
T14 sequence: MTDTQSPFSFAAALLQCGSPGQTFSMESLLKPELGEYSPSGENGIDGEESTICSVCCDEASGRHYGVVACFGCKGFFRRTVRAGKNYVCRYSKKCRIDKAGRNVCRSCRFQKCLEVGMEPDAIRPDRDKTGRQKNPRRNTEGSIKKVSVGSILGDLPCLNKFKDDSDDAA

[15] = target: T15, daf-12 (F11A1.3) (Caenorhabditis elegans) (UniProt G5EFF5)
T15 sequence: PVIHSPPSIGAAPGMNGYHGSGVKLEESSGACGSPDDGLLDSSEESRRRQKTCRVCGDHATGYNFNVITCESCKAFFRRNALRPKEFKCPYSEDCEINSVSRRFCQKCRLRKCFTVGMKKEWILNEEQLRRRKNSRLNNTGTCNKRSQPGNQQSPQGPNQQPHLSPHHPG

[16] = target: T16, ces-1 (F43G9.11) (Caenorhabditis elegans) (UniProt G5ECN8)
T16 sequence: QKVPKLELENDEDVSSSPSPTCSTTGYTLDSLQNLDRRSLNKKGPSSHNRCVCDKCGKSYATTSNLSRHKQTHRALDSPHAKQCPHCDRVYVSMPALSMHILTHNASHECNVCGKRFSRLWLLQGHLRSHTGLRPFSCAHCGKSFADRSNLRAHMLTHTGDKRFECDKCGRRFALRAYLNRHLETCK

[17] = target: T17, hlh-12 (C28C12.8) (Caenorhabditis elegans) (UniProt Q18277)
T17 sequence: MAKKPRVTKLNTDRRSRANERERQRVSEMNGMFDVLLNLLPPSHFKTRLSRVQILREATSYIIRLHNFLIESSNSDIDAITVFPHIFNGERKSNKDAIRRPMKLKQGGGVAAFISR

[18] = target: T18, K02D7.2 (K02D7.2) (Caenorhabditis elegans) (UniProt O45103)
T18 sequence: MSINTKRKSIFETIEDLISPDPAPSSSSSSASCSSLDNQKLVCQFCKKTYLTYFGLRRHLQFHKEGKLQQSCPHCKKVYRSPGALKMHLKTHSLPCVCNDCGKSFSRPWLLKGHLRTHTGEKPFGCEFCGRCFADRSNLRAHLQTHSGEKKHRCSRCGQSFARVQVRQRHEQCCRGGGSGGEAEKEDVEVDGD

AGACTCCA (double strand) [8-mer AGACTCCA]
binding signal (PBM E-score (-0.5 to 0.5)) [1]: 0.457

ATGACTAA (double strand) [8-mer ATGACTAA]
binding signal (PBM E-score (-0.5 to 0.5)) [2]: 0.465

AATGTTGC (double strand) [8-mer AATGTTGC]
binding signal (PBM E-score (-0.5 to 0.5)) [3]: 0.47 | binding signal (PBM E-score (-0.5 to 0.5)) [4]: 0.465 | binding signal (PBM E-score (-0.5 to 0.5)) [5]: 0.498

AAAGGTTG (double strand) [8-mer AAAGGTTG]
binding signal (PBM E-score (-0.5 to 0.5)) [6]: 0.454

ATTACGAA (double strand) [8-mer ATTACGAA]
binding signal (PBM E-score (-0.5 to 0.5)) [7]: 0.485

GTAAACAA (double strand) [8-mer GTAAACAA]
binding signal (PBM E-score (-0.5 to 0.5)) [8]: 0.47 | binding signal (PBM E-score (-0.5 to 0.5)) [9]: 0.492 | binding signal (PBM E-score (-0.5 to 0.5)) [10]: 0.486

ATTCGTAA (double strand) [8-mer ATTCGTAA]
binding signal (PBM E-score (-0.5 to 0.5)) [7]: 0.489

GACTCCAA (double strand) [8-mer GACTCCAA]
binding signal (PBM E-score (-0.5 to 0.5)) [1]: 0.459

GCGCCAAA (double strand) [8-mer GCGCCAAA]
binding signal (PBM E-score (-0.5 to 0.5)) [11]: 0.453

GAAAGGTC (double strand) [8-mer GAAAGGTC]
binding signal (PBM E-score (-0.5 to 0.5)) [6]: 0.461

AATATGGT (double strand) [8-mer AATATGGT]
binding signal (PBM E-score (-0.5 to 0.5)) [12]: 0.452 | binding signal (PBM E-score (-0.5 to 0.5)) [13]: 0.466

AAAGGTCA (double strand) [8-mer AAAGGTCA]
binding signal (PBM E-score (-0.5 to 0.5)) [6]: 0.493 | binding signal (PBM E-score (-0.5 to 0.5)) [14]: 0.479 | binding signal (PBM E-score (-0.5 to 0.5)) [15]: 0.491

CCATATGG (double strand) [8-mer CCATATGG]
binding signal (PBM E-score (-0.5 to 0.5)) [12]: 0.452

ACTTGTTG (double strand) [8-mer ACTTGTTG]
binding signal (PBM E-score (-0.5 to 0.5)) [16]: 0.465

ATTAGTCA (double strand) [8-mer ATTAGTCA]
binding signal (PBM E-score (-0.5 to 0.5)) [2]: 0.463

CAATATTG (double strand) [8-mer CAATATTG]
binding signal (PBM E-score (-0.5 to 0.5)) [12]: 0.495

ACCTGTAG (double strand) [8-mer ACCTGTAG]
binding signal (PBM E-score (-0.5 to 0.5)) [16]: 0.452

AATGTTTC (double strand) [8-mer AATGTTTC]
binding signal (PBM E-score (-0.5 to 0.5)) [3]: 0.497 | binding signal (PBM E-score (-0.5 to 0.5)) [4]: 0.482

TACTCCAA (double strand) [8-mer TACTCCAA]
binding signal (PBM E-score (-0.5 to 0.5)) [1]: 0.459

ATGTTTCA (double strand) [8-mer ATGTTTCA]
binding signal (PBM E-score (-0.5 to 0.5)) [3]: 0.498 | binding signal (PBM E-score (-0.5 to 0.5)) [4]: 0.479

AGAAACAT (double strand) [8-mer AGAAACAT]
binding signal (PBM E-score (-0.5 to 0.5)) [3]: 0.492 | binding signal (PBM E-score (-0.5 to 0.5)) [4]: 0.466

CAATATGG (double strand) [8-mer CAATATGG]
binding signal (PBM E-score (-0.5 to 0.5)) [12]: 0.486

ATGACTCA (double strand) [8-mer ATGACTCA]
binding signal (PBM E-score (-0.5 to 0.5)) [2]: 0.498

AATTCGTA (double strand) [8-mer AATTCGTA]
binding signal (PBM E-score (-0.5 to 0.5)) [7]: 0.47

ATGTTGCA (double strand) [8-mer ATGTTGCA]
binding signal (PBM E-score (-0.5 to 0.5)) [4]: 0.459 | binding signal (PBM E-score (-0.5 to 0.5)) [5]: 0.497

ACTCCAAT (double strand) [8-mer ACTCCAAT]
binding signal (PBM E-score (-0.5 to 0.5)) [1]: 0.464

ACCATATG (double strand) [8-mer ACCATATG]
binding signal (PBM E-score (-0.5 to 0.5)) [12]: 0.478 | binding signal (PBM E-score (-0.5 to 0.5)) [17]: 0.468

AACAGGTG (double strand) [8-mer AACAGGTG]
binding signal (PBM E-score (-0.5 to 0.5)) [18]: 0.488 | binding signal (PBM E-score (-0.5 to 0.5)) [16]: 0.468

AAAAGGTC (double strand) [8-mer AAAAGGTC]
binding signal (PBM E-score (-0.5 to 0.5)) [6]: 0.456

CCTGTTGC (double strand) [8-mer CCTGTTGC]
binding signal (PBM E-score (-0.5 to 0.5)) [16]: 0.479

AGCAACAG (double strand) [8-mer AGCAACAG]
binding signal (PBM E-score (-0.5 to 0.5)) [16]: 0.466

ACCTGTTG (double strand) [8-mer ACCTGTTG]
binding signal (PBM E-score (-0.5 to 0.5)) [16]: 0.493

TTCGTAAA (double strand) [8-mer TTCGTAAA]
binding signal (PBM E-score (-0.5 to 0.5)) [7]: 0.458

GTGACTCA (double strand) [8-mer GTGACTCA]
binding signal (PBM E-score (-0.5 to 0.5)) [2]: 0.47

ATGAGTCA (double strand) [8-mer ATGAGTCA]
binding signal (PBM E-score (-0.5 to 0.5)) [2]: 0.493

TACGAATA (double strand) [8-mer TACGAATA]
binding signal (PBM E-score (-0.5 to 0.5)) [7]: 0.452

ATACTCCA (double strand) [8-mer ATACTCCA]
binding signal (PBM E-score (-0.5 to 0.5)) [1]: 0.456

TAAACAAA (double strand) [8-mer TAAACAAA]
binding signal (PBM E-score (-0.5 to 0.5)) [8]: 0.473 | binding signal (PBM E-score (-0.5 to 0.5)) [10]: 0.493

GTGAGTCA (double strand) [8-mer GTGAGTCA]
binding signal (PBM E-score (-0.5 to 0.5)) [2]: 0.478

TATTTACA (double strand) [8-mer TATTTACA]
binding signal (PBM E-score (-0.5 to 0.5)) [8]: 0.474

ACAATATG (double strand) [8-mer ACAATATG]
binding signal (PBM E-score (-0.5 to 0.5)) [12]: 0.471

TGTAAACA (double strand) [8-mer TGTAAACA]
binding signal (PBM E-score (-0.5 to 0.5)) [8]: 0.476 | binding signal (PBM E-score (-0.5 to 0.5)) [9]: 0.485 | binding signal (PBM E-score (-0.5 to 0.5)) [10]: 0.461
